{"source": "IntAct's records for PubMed 22262837", "parents": {"B1": {"name": "Kin of IRRE-like protein 1 (Homo sapiens), Q96J84 (parent)", "chain": "MLSLLVWILTLSDTFSQGTQTRFSQEPADQTVVAGQRAVLPCVLLNYSGIVQWTKDGLALGMGQGLKAWPRYRVVGSADAGQYNLEITDAELSDDASYECQATEAALRSRRAKLTVLIPPEDTRIDGGPVILLQAGTPHNLTCRAFNAKPAATIIWFRDGTQQEGAVASTELLKDGKRETTVSQLLINPTDLDIGRVFTCRSMNEAIPSGKETSIELDVHHPPTVTLSIEPQTVQEGERVVFTCQATANPEILGYRWAKGGFLIEDAHESRYETNVDYSFFTEPVSCEVHNKVGSTNVSTLVNVHFAPRIVVDPKPTTTDIGSDVTLTCVWVGNPPLTLTWTKKDSNMVLSNSNQLLLKSVTQADAGTYTCRAIVPRIGVAEREVPLYVNGPPIISSEAVQYAVRGDGGKVECFIGSTPPPDRIAWAWKENFLEVGTLERYTVERTNSGSGVLSTLTINNVMEADFQTHYNCTAWNSFGPGTAIIQLEEREVLPVGIIAGATIGASILLIFFFIALVFFLYRRRKGSRKDVTLRKLDIKVETVNREPLTMHSDREDDTASVSTATRVMKAIYSSFKDDVDLKQDLRCDTIDTREEYEMKDPTNGYYNVRAHEDRPSSRAVLYADYRAPGPARFDGRPSSRLSHSSGYAQLNTYSRGPASDYGPEPTPPGPAAPAGTDTTSQLSYENYEKFNSHPFPGAAGYPTYRLGYPQAPPSGLERTPYEAYDPIGKYATATRFSYTSQHSDYGQRFQQRMQTHV"}}}
{"variants_of": "B1", "conditions": "with zo1_human TJP1, Q07157"}
{"variant": "K729A", "effect of a mutation on the interaction": "decreasing interaction strength"}
{"variant": "Y730A", "effect of a mutation on the interaction": "decreasing interaction strength"}
